B1: activin A (protein, UniProt P08476 311-426, looked up)
Inhibin beta A chain: GLECDGKVNICCKKQFFVSFKDIGWNDWIIAPSGYHANYCEGECPSHIAGTSGSSLSFHSTVINHYRMRGHSPFANLKSCCVPTKLRPMSMLYYDDGQNIIKKDIQNMIVEECGCS
modifications: Inhibin beta A chain
notes: a member of the TGF-β superfamily (R&D Systems)

Legend:
Type in all cases: cell-based
[1] = tested on: human embryonic stem cell line H1; assay: Immunofluorescence analysis of marker expression at stage 3 day 4 (FIG. 2, FIG. 3)
Experimental: (§1) RPMI medium (Catalogue #22400, Invitrogen, Ca) supplemented with 2% BSA (Catalog #152401, MP Biomedical, Ohio), and 100 ng/ml activin A (R&D Systems, MN) plus 20 ng/ml WNT-3a (Catalog #1324-WN-002, R&D Systems, MN) plus 8 ng/ml of bFGF (Catalog #100-18B, PeproTech, NJ), for one day followed by treatment with RPMI media supplemented with 2% BSA and 100 ng/ml activin A plus 8 ng/ml of bFGF for an additional two days (Stage 1), then • b. DMEM/F12 (Catalogue #11330, Invitrogen, Ca)+2% BSA+50 ng/ml FGF7 for three days (Stage 2), then • c. Either Treatment 1: DMEM (high glucose)+1% B27 (Invitrogen, CA)+50 ng/ml FGF7, 0.25 μM Cyclopamine-KAAD, 2 μM retinoic acid (RA) and 100 ng/ml of Noggin for four days, or • d. Treatment 2: DMEM (high glucose)+1% B27 (Invitrogen, CA)+50 ng/ml FGF7, 0.25 μM Cyclopamine-KAAD, 2 μM retinoic acid (RA), 100 ng/ml of Noggin, 20 ng/ml activin A, for four days, or • e. Treatment 3: DMEM (high glucose)+1% B27 (Invitrogen, CA)+50 ng/ml FGF7, 0.25 μM Cyclopamine-KAAD, 2 μM retinoic acid (RA), 100 ng/ml of Noggin, 1 μM ALK5 inhibitor II, for four days.
(§2) Cultures were sampled in duplicate on stage 3 day 4, and analyzed for expression of pancreatic markers using real-time PCR. Cultures also were fixed in parallel for immunofluorescence analysis.
Treatment 1 (FGF7, retinoic acid and Noggin) induced the expression of NKX6.1 and NGN3.
This is in contrast with PDX1 expressing cells generated by using DMEM/F12 supplemented with 1% B27 (Invitrogen, CA)+50 ng/ml FGF7, 0.25 μM Cyclopamine-KAAD, 2 μM retinoic acid (RA), 100 ng/ml of Noggin, 20 ng/ml activin A, wherein most PDX1 expressing cells also expressed CDX2.

[2] = tested on: human embryonic stem cell line H1; assay: Real-time PCR of pancreatic markers at stage 3 day 4, Treatments 1-3 (Table 1); details: normalized to treatment 1, stage 3 treatment for four days
Experimental: as §1, §2

[3] = tested on: human embryonic stem cell line H1; assay: Real-time PCR of pancreatic markers at stage 3 day 4, activin A 20 or 50 ng/ml added at stage 3 (FIG. 1); details: 20 or 50 ng/ml activin A with FGF7, cyclopamine-KAAD, retinoic acid, Noggin
Experimental: Briefly, cells of the human embryonic stem cell line H1 were cultured on MATRIGEL™ (1:30 dilution) coated dishes and RPMI medium supplemented with 2% BSA, 100 ng/ml activin A, 20 ng/ml WNT-3a, 8 ng/ml of bFGF for one day, followed by treatment with RPMI media supplemented with 2% BSA, 100 ng/ml activin A, 8 ng/ml of bFGF for an additional two days (Stage 1), then • a. DMEM/F12+2% BSA+50 ng/ml FGF7+0.25 μM Cyclopamine-KAAD for three days (Stage 2), then • b. DMEM-High glucose+1% B27+50 ng/ml FGF7+0.25 μM Cyclopamine-KAAD+2 μM Retinoic acid (RA)+100 ng/ml of Noggin+20 ng/ml activin A or 50 ng/ml activin A for four days (Stage 3).
As a control, separate populations of cells were treated with DMEM High glucose, supplemented with 1% B27, 50 ng/ml FGF7, 0.25 μM Cyclopamine-KAAD, 2 μM retinoic acid (RA), and 100 ng/ml of Noggin.
Cultures were sampled in duplicate on stage 3 day 4, and analyzed for expression of pancreatic markers using real-time PCR.
A down-regulation of NGN3 expression was also observed in the cells at stage 3 day 4.

Molecule | expression of NGN3 / number of NGN3 expressing cells [1] | relative expression level of NKX6.1 [2] | relative expression level of PDX1 [2] | NGN3 expression [3] | NKX6.1 expression ([3]; real-time PCR, versus cells receiving no activin A) | expression of NKX6.1 / number of NKX6.1 expressing cells [1]
Cc1cccc(-c2[nH]ncc2-c2ccc3ncccc3n2)n1 [ALK5 inhibitor II] | significantly increased | decrease | No significant impact |  |  | 
B1 | blocked |  |  | down-regulation | increase | significantly increased

— US8785185B2, “Differentiation of human embryonic stem cells” (Janssen Biotech, Inc., priority 2009, dated 2014)
